Test results as given in patent US20230235080A1, “TROPHOBLAST CELL-SURFACE ANTIGEN-2 (TROP-2) ANTIBODIES” (Bionecure Therapeutics, Inc., priority 2020, published 2023).
Positions count from the first letter of the chain named.

B1: humanized IgG #118-2-5 HuA/LuX (antibody, V domains shown)
VH: QVQLQESGPGLVKPSETLSLTCTVSGFSLTSYGVNWIRQPPGKGLEWIGVMWAGGSTNYNSALMSRVTISVDTSKNQFSLKLSSVTAADTAVYYCARDENWDGAWFAYWGQGTLVTVSS
VL: DIVMTQSPDSLAVSLGERATINCKSSQSLLNSGTRKNYLAWYQQKPGQPPKLLIYWASSRESGVPDRFSGSGSGTDFTLTISSLQAEDVAVYYCKQSYNLFTFGGGTKVEIK
notes: Full-length IgG expressed in HEK293-6E cells; also called 1 (HuA/LuX); IgG HuA/LuX
B2: humanized IgG #118-2-5 HuD/LuY (antibody, V domains shown)
VH: B1 VH with Q5K, K13A, L20I, I48L, V67L, V71K, F78V, T86Q, V92M
VL: B1 VL with D9S, I21M, N22S, Y55S, L84V, V89L
notes: Full-length IgG expressed in HEK293-6E cells; also called 8 (HuD/LuY)
B3: humanized IgG #118-2-5 HuC/LuX (antibody, V domains shown)
VH: QVQLQESGPGLVKPSETLSLTCTVSGFSLTSYGVNWIRQPPGKGLEWIGVMWAGGSTNYNSALMSRLSISKDNSKSQVFLKMNSLQTDDTGMYYCARDENWDGAWFAYWGQGTLVTVSS
VL: B1 VL
notes: Full-length IgG expressed in HEK293-6E cells; also called 3 (HuC/LuX)
B4: humanized IgG #118-2-5 HuC/LuY (antibody, V domains shown)
VH: B3 VH
VL: B1 VL with D9S, I21M, N22S, Y55S, L84V, V89L
notes: Full-length IgG expressed in HEK293-6E cells; also called 7 (HuC/LuY)
B5: #118-2-5 mouse H4-2/L3-3 (antibody, V domains shown)
VH: QVQLKQSGPGLVAPSQSLSITCTVSGFSLTSYGVNWIRQPPGKGLEWLGVMWAGGSTNYNSALMSRLSISKDNSKSQVFLKMNSLQTDDTGMYYCARDENWDGAWFAYWGQGTLVTVS
VL: DIQMTQSPSSLAVSAGEKVTMSCKSSQSLLNSGTRKNYLAWYQQKPGQSPKLLISWASSRESGVPDRFTGSGSGTDFTLTISSVQAEDLAVYYCKQSYNLFTFGGGTKLELK
notes: The label H4-2/L3-3 is not explained
B6: humanized #125-1-5 Hu1/Lu6 (antibody, V domains shown)
VH: QVQLVQSGAEVKKPGASVKVSCKASGYTFTTYVIHWVRQAPGQRLEWMGYINPNNDGTKYNEKFKGRVTITRDTSASTAYMELSSLRSEDTAVYYCARPHFETHAMDYWGQGTLVTVSS
VL: DIQMTQSPSSLSASVGDRVTITCKASEDIFNRLAWYQQKPGKAPKLLISGATSLETGVPSRFSGSGSGKDYTLTISSLQPEDFATYYCQQYWNTWTFGQGTKVEIK
notes: Humanized antibody
B7: humanized #125-1-5 Hu4/Lu5 (antibody, V domains shown)
VH: B6 VH with V20M, M48I, V68A, I70L, R72S, T74K
VL: B6 VL with I48L, S49Y, K69T
notes: Humanized antibody
B8: humanized #125-1-5 Hu4/Lu6 (antibody, V domains shown)
VH: B6 VH with V20M, M48I, V68A, I70L, R72S, T74K
VL: B6 VL
notes: Humanized antibody
B9: humanized #125-1-5 Hu2/Lu5 (antibody, V domains shown)
VH: B6 VH with R38K, A40K, R44G, M48I
VL: B6 VL with I48L, S49Y, K69T
notes: Humanized antibody
B10: humanized #125-1-5 Hu2/Lu6 (antibody, V domains shown)
VH: B6 VH with R38K, A40K, R44G, M48I
VL: B6 VL
notes: Humanized antibody
B11: humanized #125-1-5 Hu3/Lu6 (antibody, V domains shown)
VH: QVQLVQSGAEVKKPGASVKVSCKASGYTFTTYVIHWVRQAPGQRLEWMGYINPNNDGTKYNEKFKGKATLTSDKSSTTAYMEVRGLTSEDSAVYYCARPHFETHAMDYWGQGTLVTVSS
VL: B6 VL
notes: Humanized antibody
B12: humanized IgG #125-1-5 Hu3/Lu5 (antibody, V domains shown)
VH: B11 VH
VL: DIQMTQSPSSLSASVGDRVTITCKASEDIFNRLAWYQQKPGKAPKLLLYGATSLETGVPSRFSGSGSGTDYTLTISSLQPEDFATYYCQQYWNTWTFGQGTKVEIKR
notes: also called IgG Hu3/Lu5
B13: Hu(A1)/LuX: humanized #118-2-5, heavy chain Hu(A1) (SEQ ID NO: 29) with light chain LuX (SEQ ID NO: 27) (antibody, V domains shown)
VH: B1 VH
VL: B1 VL
B14: #125-1-5 mouse H14-4/L3-4: parental mouse #125-1-5 heavy/light chains H14-4/L3-4, comparator of the humanized IgGs (antibody, V domains shown)
VH: QIQLVQSGPELVKPGASVKMSCKASGYTFTTYVIHWVKQKPGQGLEWIGYINPNNDGTKYNEKFKGKATLISDKSSTTAYMEVRGLTSEDSAVYYCARPHFETHAMDYWGQGTSVTVSS
VL: DIQMTQSPSSFSVSLGDSVTITCKASEDIFNRLAWYQQKPGNAPRLLISGATSLETGVPSRFSGGGSGKEYTLSITSLQNEDVATYYCQQYWNTWTFGGGTKLEIK

Target: T1, human Trop-2 on Trop-2 positive cancer cells (human, UniProt P09758 27-323)
T1 sequence (looked up): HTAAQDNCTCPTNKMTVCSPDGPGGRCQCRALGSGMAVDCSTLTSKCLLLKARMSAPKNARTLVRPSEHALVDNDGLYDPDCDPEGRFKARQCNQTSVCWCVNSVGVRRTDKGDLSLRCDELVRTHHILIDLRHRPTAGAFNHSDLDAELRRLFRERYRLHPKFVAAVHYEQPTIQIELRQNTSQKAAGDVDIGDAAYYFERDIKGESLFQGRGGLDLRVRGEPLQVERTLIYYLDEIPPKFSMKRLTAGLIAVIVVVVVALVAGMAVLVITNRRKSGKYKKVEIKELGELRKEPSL
Experiment: cell-based or functional assay
Settings: not given

Molecule | Internalization rate (flow cytometry, MDA-MB-468 cells) [%]
B1 | 70.9
B2 | 13.2
B3 | 0.9
B4 | 3
B5 | 28.4

Target: T1, human Trop-2 on Trop-2 positive cancer …
Experiment: cell-based or functional assay
Settings: not given
Remark: another data set of the same source

Molecule | Internalization rate (flow cytometry, MDA-MB-468 cells) [%]
B1 | 96.8
B2 | 57.3

Target: T1, human Trop-2 on Trop-2 positive cancer …
Experiment: cell-based or functional assay
Settings: not given
Remark: another data set of the same source

Molecule | Internalization rate (flow cytometry, MDA-MB-468 cells) [%]
B6 | 14
B7 | 24.9
B8 | 10.3
B9 | 47.3
B10 | 14.1
B11 | 7.5
B12 | 14

Tested on: Trop-2 positive breast cancer cell line MDA-MB-468
Experiment: Internalization assay by flow cytometry (Example 2 protocol)
Format: cell-based, human
Settings: Table 9; second round of humanization of #118-2-5
Description: The chimeric IgG1 #118-2-5 and #125-1-5 were further evaluated by internalization assay using Trop-2 positive breast cancer cell line MDA-MB-468. MDA-MB-468 cells were seeded at 1×10^5 cell/well. Next, the chimeric or benchmark IgGs were added to cells in FACS buffer and incubated for 2 hours at 4° C. After incubation, the cells were washed to remove unbound antibody. The cells were then incubated at 37° C. After 2 hours, the cells were dissociated and stained with fluorescent-conjugated […] secondary antibodies for 30 minutes on ice in dark before being analyzed using Beckman flow cytometry system. The fluorescent intensity and cell binding percentage at each time point were analyzed by Beckman flow cytometric software. The amount of chimeric IgGs internalized into cells was determined using the following formula: % internalization rate = 100 × (MFI4°C - MFI37°C) / MFI4°C.

Molecule | Internalization rate [%]
B13 | 56.01

Target: T2, human Trop-2-ECD-6His fusion protein (Homo sapiens, UniProt P09758)
T2 construct: made in house; host or cells: human 293 cell line
T2 sequence (P09758 with tags, fused parts or gaps): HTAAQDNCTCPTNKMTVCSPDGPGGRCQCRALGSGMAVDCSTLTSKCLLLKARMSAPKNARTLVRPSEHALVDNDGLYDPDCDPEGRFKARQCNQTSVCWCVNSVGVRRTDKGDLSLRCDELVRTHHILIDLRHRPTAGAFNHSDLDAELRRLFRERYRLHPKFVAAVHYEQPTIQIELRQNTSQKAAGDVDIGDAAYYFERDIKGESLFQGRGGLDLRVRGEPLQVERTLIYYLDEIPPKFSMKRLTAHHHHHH
Experiment: Antigen binding assay (ELISA) on immobilized Trop-2-ECD-6His
Settings: Table 10; humanized #125-1-5 antibodies

Molecule | EC50 [nM]
B14 | 0.004

Target: T3, human Trop-2-ECD-6His fusion protein (human, UniProt P09758 27-274)
T3 construct: Expressed in a human 293 cell line; also called huTrop-2; human Trop-2 antigen
T3 sequence: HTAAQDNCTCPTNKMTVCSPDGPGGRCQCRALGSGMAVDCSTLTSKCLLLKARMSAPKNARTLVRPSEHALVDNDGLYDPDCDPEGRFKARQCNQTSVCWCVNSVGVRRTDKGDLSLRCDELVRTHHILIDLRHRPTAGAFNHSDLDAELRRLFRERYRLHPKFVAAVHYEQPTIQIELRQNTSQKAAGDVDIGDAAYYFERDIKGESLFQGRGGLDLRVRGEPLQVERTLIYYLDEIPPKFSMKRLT
Experiment: antigen binding ELISA on immobilized human Trop-2-ECD-6His
Settings: not given

Molecule | EC50 [nM]
B1 | 0.142
B2 | 0.005
B3 | 0.034
B4 | 0.014
B5 | 0.024

Target: T3, human Trop-2-ECD-6His fusion protein
Experiment: as above
Settings: not given
Remark: another data set of the same source

Molecule | EC50 [nM]
B1 | 0.39
B2 | 0.06

Target: T3, human Trop-2-ECD-6His fusion protein
Experiment: as above
Settings: not given
Remark: another data set of the same source

Molecule | EC50 [nM]
B6 | 0.003
B7 | 0.019
B8 | 0.022
B9 | 0.007
B10 | 0.018
B11 | 0.045
B12 | 0.012

Target: T4, mouse Trop-2-His (mouse, UniProt Q8BGV3 25-270)
T4 sequence (looked up): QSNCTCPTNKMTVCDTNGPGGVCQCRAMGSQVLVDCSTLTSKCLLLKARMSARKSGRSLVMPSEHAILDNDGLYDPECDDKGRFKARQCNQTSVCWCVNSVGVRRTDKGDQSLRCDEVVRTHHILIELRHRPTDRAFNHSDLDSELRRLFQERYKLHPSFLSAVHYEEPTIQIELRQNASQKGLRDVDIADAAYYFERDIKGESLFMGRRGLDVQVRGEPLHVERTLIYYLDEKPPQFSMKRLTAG
Experiment: ELISA on coated antigen, one antibody dilution (concentration not given), detected by GAH-HRP; y axis without a label (OD450 by the text)
Settings: not given

Molecule | binding result
B1 | no binding
B2 | no binding
B3 | no binding
B4 | no binding
B5 | no binding

Target: T5, human EPCAM-His (human, UniProt P16422 24-265)
T5 construct: also called hEPCAM
T5 sequence (looked up): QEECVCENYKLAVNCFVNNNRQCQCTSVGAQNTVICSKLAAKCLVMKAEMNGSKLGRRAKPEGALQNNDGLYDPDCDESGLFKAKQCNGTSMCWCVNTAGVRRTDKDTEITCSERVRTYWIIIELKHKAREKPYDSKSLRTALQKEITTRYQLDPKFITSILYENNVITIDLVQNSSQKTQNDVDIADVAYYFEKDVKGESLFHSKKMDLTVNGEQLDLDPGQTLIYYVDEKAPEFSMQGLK
Experiment: as above
Settings: not given

Molecule | binding result
B1 | no binding
B2 | no binding
B3 | no binding
B4 | no binding
B5 | no binding
